Reference: article PMC6737238

How the values were obtained:
Assay in all cases: EMSA
Conditions in all cases: EMSA: 0.4 nM biotinylated probe, 10 mM Tris-HCl pH 7.5, 1 mM DTT, 10 mM MgCl2, 400 mM KCl, 0.05% NP-40, 70C 10 min; 5% PAGE, 0.5x TBE
[1] = target: T1, TkTrpY (TK1227 protein) (Thermococcus kodakarensis KOD1) (UniProt Q5JGI5)
T1 sequence: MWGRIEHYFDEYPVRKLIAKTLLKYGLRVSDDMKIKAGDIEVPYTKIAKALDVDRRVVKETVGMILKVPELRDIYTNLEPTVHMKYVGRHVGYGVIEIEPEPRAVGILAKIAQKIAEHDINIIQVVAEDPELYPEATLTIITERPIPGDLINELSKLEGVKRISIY

[2] = target: T2, TK2190 protein (Thermococcus kodakarensis KOD1) (UniProt Q5JHK1)
T2 sequence: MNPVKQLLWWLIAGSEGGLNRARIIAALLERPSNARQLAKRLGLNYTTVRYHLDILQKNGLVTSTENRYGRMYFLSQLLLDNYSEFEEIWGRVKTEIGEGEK

[3] = target: T3, TK0888 protein (Thermococcus kodakarensis KOD1) (UniProt Q5JI32)
T3 sequence: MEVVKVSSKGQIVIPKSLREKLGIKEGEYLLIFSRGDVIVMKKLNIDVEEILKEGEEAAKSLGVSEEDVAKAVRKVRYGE

[4] = target: T4, TK1339 protein (Thermococcus kodakarensis KOD1) (UniProt Q5JGU9)
T4 sequence: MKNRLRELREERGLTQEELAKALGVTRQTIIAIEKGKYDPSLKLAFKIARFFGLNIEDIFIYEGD

[5] = target: T5, TK2229 protein (Thermococcus kodakarensis KOD1) (UniProt Q5JHP9)
T5 sequence: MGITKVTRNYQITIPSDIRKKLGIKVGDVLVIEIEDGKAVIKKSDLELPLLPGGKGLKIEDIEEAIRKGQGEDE

[6] = target: T6, TK0142 protein (Thermococcus kodakarensis KOD1) (UniProt Q5JFH4)
T6 sequence: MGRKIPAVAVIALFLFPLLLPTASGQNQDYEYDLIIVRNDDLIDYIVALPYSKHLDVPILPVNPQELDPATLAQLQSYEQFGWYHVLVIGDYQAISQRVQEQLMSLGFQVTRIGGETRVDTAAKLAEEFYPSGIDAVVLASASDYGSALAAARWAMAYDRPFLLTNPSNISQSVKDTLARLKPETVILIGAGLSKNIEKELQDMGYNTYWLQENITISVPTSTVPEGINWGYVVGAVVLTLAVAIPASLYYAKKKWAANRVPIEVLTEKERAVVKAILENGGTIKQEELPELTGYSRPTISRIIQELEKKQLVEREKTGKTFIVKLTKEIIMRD

[7] = target: T7, TK1210 protein (Thermococcus kodakarensis KOD1) (UniProt Q5JGG7)
T7 sequence: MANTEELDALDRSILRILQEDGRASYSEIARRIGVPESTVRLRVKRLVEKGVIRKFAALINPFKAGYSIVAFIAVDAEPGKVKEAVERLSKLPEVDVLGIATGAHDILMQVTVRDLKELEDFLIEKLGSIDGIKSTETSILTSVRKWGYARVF

[8] = target: T8, Tar (TK0271 protein) (Thermococcus kodakarensis KOD1) (UniProt Q5JFW7)
T8 sequence: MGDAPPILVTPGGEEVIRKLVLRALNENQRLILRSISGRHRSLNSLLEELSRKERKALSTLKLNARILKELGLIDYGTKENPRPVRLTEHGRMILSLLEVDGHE

[9] = target: T9, TK0063 protein (Thermococcus kodakarensis KOD1) (UniProt Q5JEG2)
T9 sequence: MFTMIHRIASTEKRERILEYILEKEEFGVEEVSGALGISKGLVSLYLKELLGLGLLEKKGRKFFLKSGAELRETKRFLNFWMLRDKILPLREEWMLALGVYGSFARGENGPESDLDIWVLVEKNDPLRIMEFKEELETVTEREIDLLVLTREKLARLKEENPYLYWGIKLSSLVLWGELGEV

[10] = target: T10, TK0271 protein (IVT) (Thermococcus kodakarensis KOD1) (UniProt Q5JFW7)
T10 sequence: T8 sequence

[11] = target: T11, TK1955 protein (Thermococcus kodakarensis KOD1) (UniProt Q5JDN7)
T11 sequence: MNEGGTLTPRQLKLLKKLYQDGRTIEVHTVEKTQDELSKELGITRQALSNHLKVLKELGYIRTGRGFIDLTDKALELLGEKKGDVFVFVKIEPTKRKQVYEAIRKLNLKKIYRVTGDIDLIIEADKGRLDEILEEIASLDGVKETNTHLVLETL

[12] = target: T12, TK0169 protein (Thermococcus kodakarensis KOD1) (UniProt Q5JFL2)
T12 sequence: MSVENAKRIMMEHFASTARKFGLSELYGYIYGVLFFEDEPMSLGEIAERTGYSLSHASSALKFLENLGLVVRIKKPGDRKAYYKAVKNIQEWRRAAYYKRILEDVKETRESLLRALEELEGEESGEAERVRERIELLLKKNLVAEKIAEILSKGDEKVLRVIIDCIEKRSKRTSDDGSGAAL

[13] = target: T13, TK1489 protein (Thermococcus kodakarensis KOD1) (UniProt Q5JJD9)
T13 sequence: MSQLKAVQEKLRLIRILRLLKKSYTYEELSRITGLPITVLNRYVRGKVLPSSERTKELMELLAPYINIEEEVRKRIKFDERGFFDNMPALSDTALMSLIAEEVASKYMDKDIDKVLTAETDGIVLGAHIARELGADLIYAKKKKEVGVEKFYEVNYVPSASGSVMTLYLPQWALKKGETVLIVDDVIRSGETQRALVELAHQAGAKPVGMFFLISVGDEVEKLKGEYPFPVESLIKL

[14] = target: T14, TK1227 protein (IVT) (Thermococcus kodakarensis KOD1) (UniProt Q5JGI5)
T14 sequence: T1 sequence

[15] = target: T15, TK1881 protein (Thermococcus kodakarensis KOD1) (UniProt Q5JEN6)
T15 sequence: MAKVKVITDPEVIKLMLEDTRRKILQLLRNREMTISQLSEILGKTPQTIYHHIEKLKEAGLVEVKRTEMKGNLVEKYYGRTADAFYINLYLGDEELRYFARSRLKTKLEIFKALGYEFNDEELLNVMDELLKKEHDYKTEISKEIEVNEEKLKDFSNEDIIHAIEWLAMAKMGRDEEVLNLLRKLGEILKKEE

[16] = target: T16, TK1272 protein (Thermococcus kodakarensis KOD1) (UniProt Q5JGN9)
T16 sequence: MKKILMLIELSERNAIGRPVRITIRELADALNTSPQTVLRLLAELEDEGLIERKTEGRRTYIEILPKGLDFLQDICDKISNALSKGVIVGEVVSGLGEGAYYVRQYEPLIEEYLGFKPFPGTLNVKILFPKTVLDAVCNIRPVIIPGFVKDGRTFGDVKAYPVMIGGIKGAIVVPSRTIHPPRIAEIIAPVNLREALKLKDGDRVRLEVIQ

GACCACCCGCTCAGAAAAGGACGTCGTAAGGACAAGTACACCGTTATTCTCTACCAGGCAACCGTACGAACTATTCAAAGTTCACCCTTTGAAGAAAGGCAAACATTTTTGTTTAACAAAAACACTTTTGTTAGCGCAAACTATTTAAACAACCGTTGTATATCACAGATGGTGATATATATGGTTGAGC (double strand) [TK0705 (GAPN) promoter]
binding [1]: binds more weakly

GACTTCGGCTTTCTGATGGTCGGAAGGGACGTGGAAAATGCGAACGAAGCGATAAAAATGTTTTTGGAGGAGGTTAAACGAGGGCCTTAACGCCCTCTCGGTCTTTTTAGCTACTCCCTTGGACACCTCAGCATGTCCAAAGCCTTATATCCCAACTCCCCCTTTTGACACCGGTGAGTTCAAATGGGTGATGGTTTTTGGATTAAGC (double strand) [trp promoter (TK0252)]
binding [2]: binds
binding [3]: binds
binding [4]: binds
binding [5]: binds
binding [6]: binds
binding [7]: binds
Kd [8]: 5 nM
binding [8]: binds
binding [9]: binds
binding [10]: binds
binding [11]: binds
binding [12]: binds
binding [13]: binds
binding [14]: binds
binding [15]: binds
binding [16]: binds

GCTACTTCCATCCTCCTCTGGAGAAGCTGGAGAATTTCCCGGTCAATCTCGTCTATCCTTCTCCTCAGAATGGCAAGTTCTACAAGATCAGGACTCGATATTGGCGGGACATCACCGTCACCGTTTTGAGCTTGAAGTTCGAAGATTTAACCTTTTGGACAGGTTCACCTAACCATCCCCTCCCAGGCCCTCCTCCTCAGGAG (double strand) [tyr-phe promoter (TK0261)]
Kd [8]: binds

GGACGCCTGTTTGTCAAATCGACAAAAATACGCCAGTTTTCACACTGATTTTTAACAGATTGATGAGATGGACGTCCTTTTTTGGGAATTGGACAGGCAAACCTGGCGAATAGTTTAAATAGGGTTGCTGATTCATCCGTCTCCGGTGATCGGTGATGTCCCGCCAATTTATGAAGTCTTCAAACCAGGTGATGTCCCGCCAATGGGTGATGC (double strand) [aro promoter (TK0271)]
Kd [8]: binds

TGCGGGCCATCATCATCACCCAATACCTTTGATGTGGGTAAAACATGGGGAGGTTATATACTTTATGTCCCTCAGGGACTTGGCAATGAAACTTTTAAGAATTTCGTCCGATTCTAGAATCAAACTGTAAAAGACCCATATTTTACAATAGCAGCCAGGAAAGAATATTAAACAGAAAATAAGGGATTAAATGCCGTTATCCCCA (double strand) [TK1899 (radA) promoter]
binding [8]: binds more weakly

trp promoter (TK0252)
Kd [8]: 5 nM
